Test results published in IntAct's records for PubMed 18166655.

B1: Caspase drICE (Drosophila melanogaster (Fruit fly)), O01382 (parent)
chain: MDATNNGESADQVGIRVGNPEQPNDHTDALGSVGSGGAGSSGLVAGSSHPYGSGAIGQLANGYSSPSSSYRKNVAKMVTDRHAAEYNMRHKNRGMALIFNHEHFEVPTLKSRAGTNVDCENLTRVLKQLDFEVTVYKDCRYKDILRTIEYAASQNHSDSDCILVAILSHGEMGYIYAKDTQYKLDNIWSFFTANHCPSLAGKPKLFFIQACQGDRLDGGVTMQRSQTETDGDSSMSYKIPVHADFLIAYSTVPGFYSWRNTTRGSWFMQSLCAELAANGKRLDILTLLTFVCQRVAVDFESCTPDTPEMHQQKQIPCITTMLTRILRFSDKQLAPAGRV
partner: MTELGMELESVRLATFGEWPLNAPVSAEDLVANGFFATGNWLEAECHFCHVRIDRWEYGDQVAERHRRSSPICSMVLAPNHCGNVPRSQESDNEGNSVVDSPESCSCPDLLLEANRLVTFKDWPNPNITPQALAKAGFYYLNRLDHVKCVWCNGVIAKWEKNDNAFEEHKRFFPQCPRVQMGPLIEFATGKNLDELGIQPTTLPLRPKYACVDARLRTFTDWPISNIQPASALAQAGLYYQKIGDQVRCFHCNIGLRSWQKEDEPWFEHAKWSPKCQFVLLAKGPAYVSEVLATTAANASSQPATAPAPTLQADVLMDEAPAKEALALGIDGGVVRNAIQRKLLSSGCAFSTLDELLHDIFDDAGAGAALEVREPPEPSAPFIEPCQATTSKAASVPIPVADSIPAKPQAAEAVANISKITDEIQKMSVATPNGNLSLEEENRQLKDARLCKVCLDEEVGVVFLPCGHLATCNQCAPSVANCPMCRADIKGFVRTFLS
B2: Death-associated inhibitor of apoptosis 2 (Drosophila melanogaster (Fruit fly)), Q24307 (parent)
chain: B1 partner
partner: B1 chain
B3: Caspase drICE (Drosophila melanogaster (Fruit fly)), O01382 (parent)
chain: B1 chain
partner: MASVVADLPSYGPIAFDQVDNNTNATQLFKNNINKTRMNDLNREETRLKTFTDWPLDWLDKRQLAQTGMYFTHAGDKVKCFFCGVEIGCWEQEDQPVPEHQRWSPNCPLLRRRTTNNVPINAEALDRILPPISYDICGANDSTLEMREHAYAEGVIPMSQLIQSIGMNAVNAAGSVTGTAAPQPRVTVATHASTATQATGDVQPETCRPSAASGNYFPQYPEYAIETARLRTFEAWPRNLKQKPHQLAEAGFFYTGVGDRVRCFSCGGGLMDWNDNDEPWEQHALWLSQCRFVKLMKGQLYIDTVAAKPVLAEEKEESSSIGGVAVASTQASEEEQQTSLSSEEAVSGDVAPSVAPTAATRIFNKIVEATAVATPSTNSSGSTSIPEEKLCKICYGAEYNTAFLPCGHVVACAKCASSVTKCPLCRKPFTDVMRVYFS
B4: Death-associated inhibitor of apoptosis 2 (Drosophila melanogaster (Fruit fly)), Q24307 (parent)
chain: B1 partner
partner: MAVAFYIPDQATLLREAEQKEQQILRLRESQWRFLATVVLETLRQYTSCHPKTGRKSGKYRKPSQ
B5: Death-associated inhibitor of apoptosis 2 (Drosophila melanogaster (Fruit fly)), Q24307 (parent)
chain: B1 partner
partner: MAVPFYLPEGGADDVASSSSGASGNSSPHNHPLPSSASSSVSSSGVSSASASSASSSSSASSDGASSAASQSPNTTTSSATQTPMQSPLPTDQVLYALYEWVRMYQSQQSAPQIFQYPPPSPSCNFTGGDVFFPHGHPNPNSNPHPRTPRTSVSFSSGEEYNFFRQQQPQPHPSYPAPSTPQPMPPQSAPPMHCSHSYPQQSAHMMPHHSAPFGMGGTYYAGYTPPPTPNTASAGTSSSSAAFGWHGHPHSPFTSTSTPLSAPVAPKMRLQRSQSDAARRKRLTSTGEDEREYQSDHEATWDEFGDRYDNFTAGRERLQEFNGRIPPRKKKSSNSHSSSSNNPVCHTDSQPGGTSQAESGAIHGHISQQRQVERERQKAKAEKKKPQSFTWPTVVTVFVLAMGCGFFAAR
B6: Death-associated inhibitor of apoptosis 2 (Drosophila melanogaster (Fruit fly)), Q24307 (parent)
chain: B1 partner
partner: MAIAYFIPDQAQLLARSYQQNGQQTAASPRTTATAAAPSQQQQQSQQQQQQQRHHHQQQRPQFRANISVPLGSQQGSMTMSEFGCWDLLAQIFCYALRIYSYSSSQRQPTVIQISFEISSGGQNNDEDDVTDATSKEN

Variants of: B1
Settings: with diap2_drome Diap2, Q24307

Row | Variant | effect of a mutation on the interaction
1 | A29V | decreasing interaction strength

Variants of: B2
Settings: with drice_drome Drice

Row | Variant | effect of a mutation on the interaction
2 | C149G | with no effect
3 | C249G | disrupting interaction strength
4 | D163A | with no effect
5 | D263A | disrupting interaction strength
6 | D100E | disrupting interaction strength

Variants of: B3
Settings: with diap1_drome Diap1, Q24306

Row | Variant | effect of a mutation on the interaction
7 | C211A | with no effect

Variants of: B4
Settings: with rpr_drome rpr

Row | Variant | effect of a mutation on the interaction
8 | C46G | with no effect
9 | C249G | with no effect
10 | C149G;C249G | decreasing interaction strength
11 | C149G | decreasing interaction strength

Variants of: B5
Settings: with hid_drome hid

Row | Variant | effect of a mutation on the interaction
12 | C46G | with no effect
13 | C149G | with no effect
14 | C149G;C249G | decreasing interaction strength
15 | C249G | with no effect

Variants of: B5
Settings: with hid_drome hid
Remark: another data set of the same source

Row | Variant | effect of a mutation on the interaction
16 | D100E | with no effect

Variants of: B6
Settings: with grim_drome grim

Row | Variant | effect of a mutation on the interaction
17 | C46G | with no effect
18 | C149G | decreasing interaction strength
19 | C149G;C249G | disrupting interaction strength
20 | C249G | with no effect
